The source of these data is PMC8299502.

The target of series [1] is T1, RbFox(RRM) (UniProt Q9NWB1 109-208).
T1 sequence: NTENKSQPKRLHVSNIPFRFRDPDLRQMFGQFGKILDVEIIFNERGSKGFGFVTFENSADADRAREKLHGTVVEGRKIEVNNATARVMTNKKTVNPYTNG
Nature of the series: fluorescence anisotropy. (In general: Polarisation of emitted light reports the rotation of a fluorescent probe.)

In series [2] the target is T2, Dazl(RRM) (Mus musculus, UniProt Q64368 32-117).
T2 sequence: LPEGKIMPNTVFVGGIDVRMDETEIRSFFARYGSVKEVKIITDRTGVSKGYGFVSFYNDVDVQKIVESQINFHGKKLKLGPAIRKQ
Nature of the series: fluorescence anisotropy.

As to UCCUGCAUGUUUA (ssRNA) [RbFox cognate RNA], in series [1], the binding result is “binds”. Regarding UUGUUCUUU (ssRNA) [Dazl cognate RNA], the binding result in series [2] is “binds”.
